Results: publication PMC4359774, “AZT resistance alters enzymatic properties and creates an ATP-binding site in SFVmac reverse transcriptase”

Biological target: T1, SFVmac PR-RT WT (Simian foamy virus from macaques …, UniProt P23074 1-751)
T1 sequence: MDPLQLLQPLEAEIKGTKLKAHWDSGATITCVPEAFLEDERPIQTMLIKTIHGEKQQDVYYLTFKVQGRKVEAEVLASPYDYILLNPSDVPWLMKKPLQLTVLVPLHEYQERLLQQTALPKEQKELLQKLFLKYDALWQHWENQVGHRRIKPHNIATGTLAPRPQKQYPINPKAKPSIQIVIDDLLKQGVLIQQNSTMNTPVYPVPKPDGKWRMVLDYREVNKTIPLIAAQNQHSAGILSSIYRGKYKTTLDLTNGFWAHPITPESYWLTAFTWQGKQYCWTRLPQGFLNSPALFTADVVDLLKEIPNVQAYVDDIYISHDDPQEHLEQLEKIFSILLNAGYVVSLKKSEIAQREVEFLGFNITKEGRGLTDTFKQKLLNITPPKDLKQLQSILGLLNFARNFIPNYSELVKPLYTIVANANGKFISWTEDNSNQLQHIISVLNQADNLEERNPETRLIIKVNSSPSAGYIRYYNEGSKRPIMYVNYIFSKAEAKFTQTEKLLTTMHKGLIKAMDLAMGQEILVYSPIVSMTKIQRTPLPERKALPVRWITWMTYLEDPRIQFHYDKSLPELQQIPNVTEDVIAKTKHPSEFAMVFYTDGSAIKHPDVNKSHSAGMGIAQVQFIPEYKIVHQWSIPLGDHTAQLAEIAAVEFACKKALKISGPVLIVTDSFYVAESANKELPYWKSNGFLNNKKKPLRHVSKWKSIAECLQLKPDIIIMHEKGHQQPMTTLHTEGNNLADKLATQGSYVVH
Test: fluorescence anisotropy; Fluorescence equilibrium titration, 5 nM DNA, 25 C; buffer, salt and pH not given in the material (refs 14, 43)
Details: protein: recombinant; label: 5' DY647 on template (S6); 24 bp; template 5' overhang 5 nt and 3' overhang 11 nt

B1: 24/40-mer DNA/DNA primer/template (dsDNA)
DNA 1: CTAATTCCGCTTTCCCCTCTCCTGGTGATCCTTTCCATCC
DNA 2: ATCACCAGGAGAGGGGAAAGCGGA
Kd: 9.6 ± 0.7 nM
